Source: publication PMC5079754 (Biochimica et biophysica acta, 2016)

Key:
[1] = biological target: Lmod2s1 (N-terminal residues 2-41 of leiomodin-2) (human) (UniProt Q6P5Q4); assay: circular dichroism, thermal unfolding
[2] = biological target: Tmod1s1 peptide (residues 1-38 of tropomodulin-1) (Gallus gallus); assay: circular dichroism, thermal unfolding
[3] = peptide alone, versus WT αTM1a1-21Zip
[4] = biological target: Tmod1s1 (res. 1–38 of Tmod1); assay: CD thermal unfolding at 222 nm of Tpm1.1 model peptide complexes with Tmod1s1; type: binding, Gallus gallus
[5] = biological target: Lmod2s1 (N-terminal residues 2-41 of leiomodin-2) (human) (UniProt Q6P5Q4); assay: NMR titration; conditions: scale: two-chained αTM1a_(1-14)Zip molecule per Lmod2s1

Sequence of UniProt Q6P5Q4 (Q6P5Q4 2-41): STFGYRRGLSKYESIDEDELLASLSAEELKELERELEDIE

Row | Substance | Kd [1] | Kd [2] | also measured
1 | αTM1a_(1-21)Zip, model Tpm1.1 peptide (from UniProt P09493-1 1-21) | 370 nM | 1000 nM | –
2 | H-GMDAIKKKMQMLKLDNENALDRNYHLENEVARLKKLVGER-OH [αTM1a1–21Zip[K15N]] | – | – | decrease in the Tm caused by the K15N mutation [3]: ~ 6 °C; Kd ([4]; read-out: Kd (30°C,µM), Tmod1s1, 30°C, Kd=exp(−ΔΔG/RT) from CD unfolding of the complex and of the Tpm1.1 peptide alone, 40 µM equimolar, 10 mM sodium phosphate pH 7.0, 100 mM NaCl, duplicates): 3.77 ± 0.01 µM; fold reduction of affinity of Tmod1s1 by the K15N mutation ([4]; versus WT αTM1a1-21Zip, P<0.001, One Way ANOVA): four-fold
3 | αTM1a_(1-21)Zip[K15N], model Tpm1.1 peptide with the dilated cardiomyopathy-associated mutation K15N (from UniProt P09493-1 1-21) | 2310 nM | 3770 nM | –
4 | αTM1a_(1-14)Zip, model Tpm1.1 peptide (from UniProt P09493-1 1-14) | – | – | stoichiometry N [5]: 1
